According to patent publication US8147844 (Genentech, dated 2012):
Several values for one entry are separate records, joined by “and”; a condition that tells them apart may be missing. Equal values may be shown once.

Experiments:
[1] = biological target: T1, mpl-IgG (chimeric molecule comprising the entire extracellular domain of human mpl, amino acids 1-491, and … (human, UniProt P40238 26-491)); assay: mpl receptor based ELISA (captured mpl-IgG)
T1 construct: range 1-491; Expressed in 293 cells; no cleavage site is stated; Used immobilized on Ultralink or NHS-superose, captured on ELISA plates, or soluble; also called soluble mpl-IgG; soluble human mpl-IgG; not shown: Fc region of a human IgG1 molecule
T1 sequence (looked up): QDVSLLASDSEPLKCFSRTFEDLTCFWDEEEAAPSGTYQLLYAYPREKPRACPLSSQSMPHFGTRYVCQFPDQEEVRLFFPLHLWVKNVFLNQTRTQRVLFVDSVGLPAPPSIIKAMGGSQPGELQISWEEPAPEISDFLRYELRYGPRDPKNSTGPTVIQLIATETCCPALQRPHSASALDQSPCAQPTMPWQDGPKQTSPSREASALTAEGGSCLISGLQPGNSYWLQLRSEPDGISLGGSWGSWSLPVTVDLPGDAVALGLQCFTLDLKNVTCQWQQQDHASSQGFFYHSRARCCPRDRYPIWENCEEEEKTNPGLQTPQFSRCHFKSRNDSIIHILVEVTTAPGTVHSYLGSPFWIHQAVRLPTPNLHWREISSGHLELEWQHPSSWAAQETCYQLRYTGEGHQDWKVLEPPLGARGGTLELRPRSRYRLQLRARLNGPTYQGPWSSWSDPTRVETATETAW

[2] = biological target: T1, mpl-IgG (chimeric molecule comprising …); assay: mpl receptor-based ELISA: mpl-IgG captured on an anti-human IgG (Fc) plate, bound TPO detected with biotinylated rabbit antibodies to TPO155

Binder | EC50 [1] | EC50 [2]
TPO (1-155) with authentic N-terminus, generated by thrombin cleavage of T-H8MLF (ligand, Only very minor (<5%) internal cleavage occurred; also called cleaved variant (3)) SPAPPACDLRVLSKLLRDSHVLHSRLSQCPEVHPLPTPVLLPAVDFSLGEWKTQMEETKAQDILGAVTLLLEGVMAARGQLGPTCLSSLLGQLSGQVRLLLGALQSLLGTQLPPQGRTTAHKDPNAIFLSFQHLLRGKVRFLMLVGGSTLCVRRA | 0.002 µg/mL to 0.004 µg/mL (2×) and 0.12 nM and 0.24 nM | –
TPO (Met^-1 1-153), refolded, produced in E. coli (ligand, non-glycosylated; disulfides between cysteines 1-4 and 2-3, Encoded by plasmid pMP210-1) MSPAPPACDLRVLSKLLRDSHVLHSRLSQCPEVHPLPTPVLLPAVDFSLGEWKTQMEETKAQDILGAVTLLLEGVMAARGQLGPTCLSSLLGQLSGQVRLLLGALQSLLGTQLPPQGRTTAHKDPNAIFLSFQHLLRGKVRFLMLVGGSTLCVR | – | 0.0019 µg/mL and 0.12 nM
